From the Immune Epitope Database (IEDB)
Values belong to the sequence of their own block, whether it stands above or below them.

Columns and labels:
HLA-A*02:01 [1] = test: IEDB peptide-MHC binding, purified MHC/competitive/radioactivity; ≥ and ≤ were set here for values at or beyond the usual limits of such assays
HLA-A*26:02 [2] = test: IEDB peptide-MHC binding, purified MHC/direct/fluorescence; filed as Kd, often an IC50 or EC50 that approximates it; ≥ and ≤ were set here for values at or beyond the usual limits of such assays; conditions: source organism: Dengue virus 2 Thailand/16681/84
HLA-A*01:01 [3] = test: IEDB peptide-MHC binding, purified MHC/competitive/fluorescence; filed as Kd, often an IC50 or EC50 that approximates it; ≥ and ≤ were set here for values at or beyond the usual limits of such assays; conditions: source organism: Human immunodeficiency virus 1
HLA-A*02:03 = test: as above; conditions: source organism: Human immunodeficiency virus 1
HLA-A*02:06 = test: as above
HLA-A*11:01 [4] = test: as above
HLA-A*26:02 [5] = test: as above; conditions: source organism: Human immunodeficiency virus 1
HLA-A*30:01 = test: as above
HLA-B*15:01 [6] = test: as above; conditions: source organism: Human immunodeficiency virus 1
HLA-B*15:17 = test: as above
HLA-B*18:01 = test: as above; conditions: source organism: Human immunodeficiency virus 1
HLA-B*57:01 [7] = test: as above; conditions: source organism: Human immunodeficiency virus 1
HLA-A*01:01 [8] = test: IEDB peptide-MHC binding, purified MHC/direct/fluorescence; filed as Kd, often an IC50 or EC50 that approximates it; ≥ and ≤ were set here for values at or beyond the usual limits of such assays; conditions: source organism: Mycobacterium tuberculosis
HLA-A*03:01 = test: as above
HLA-A*11:01 [9] = test: as above
HLA-A*31:01 = test: as above
HLA-A*69:01 = test: as above
HLA-B*15:01 [10] = test: as above
HLA-B*27:05 = test: as above
HLA-B*39:01 = test: as above; conditions: source organism: Mycobacterium tuberculosis str. Haarlem
HLA-B*40:01 = test: as above; conditions: source organism: Mycobacterium tuberculosis
HLA-B*46:01 = test: as above; conditions: source organism: Mycobacterium tuberculosis
HLA-B*48:01 = test: as above; conditions: source organism: Mycobacterium tuberculosis
HLA-B*51:01 = test: as above; conditions: source organism: Mycobacterium tuberculosis
HLA-B*57:01 [11] = test: as above; conditions: source organism: Mycobacterium tuberculosis
HLA-B*58:01 = test: as above
HLA-A*02:01 [12] = test: IEDB peptide-MHC binding, purified MHC/competitive/fluorescence; filed as Kd, often an IC50 or EC50 that approximates it; ≥ and ≤ were set here for values at or beyond the usual limits of such assays; conditions: source organism: Mycobacterium tuberculosis variant bovis BCG str. Pasteur 1173P2
HLA-B*08:01 = test: as above; conditions: source organism: Mycobacterium tuberculosis variant bovis BCG str. Pasteur 1173P2
HLA-B*15:42 = test: as above
HLA-B*45:06 = test: as above
HLA-B*83:01 = test: as above
HLA-A*02:01 [13] = test: IEDB peptide-MHC binding, purified MHC/direct/fluorescence; filed as Kd, often an IC50 or EC50 that approximates it; ≥ and ≤ were set here for values at or beyond the usual limits of such assays; conditions: source organism: Homo sapiens
HLA-B*07:02 = test: as above; conditions: source organism: Homo sapiens
HLA-C*03:03 = test: as above; conditions: source organism: Homo sapiens
HLA-C*06:02 = test: as above
HLA-A*32:07 = test: IEDB peptide-MHC binding, purified MHC/competitive/fluorescence; filed as Kd, often an IC50 or EC50 that approximates it; ≥ and ≤ were set here for values at or beyond the usual limits of such assays
HLA-C*14:02 [14] = test: IEDB peptide-MHC binding, purified MHC/direct/fluorescence; filed as Kd, often an IC50 or EC50 that approximates it; ≥ and ≤ were set here for values at or beyond the usual limits of such assays; conditions: source organism: Yellow fever virus
HLA-C*15:02 = test: as above
HLA-A*24:03 = test: IEDB peptide-MHC binding, purified MHC/competitive/fluorescence; filed as Kd, often an IC50 or EC50 that approximates it; ≥ and ≤ were set here for values at or beyond the usual limits of such assays; conditions: source organism: Bacillus cereus G9241
HLA-C*14:02 [15] = test: as above; conditions: source organism: Bacillus cereus G9241
[16] = source organism: Human immunodeficiency virus 1
[17] = source organism: Mycobacterium tuberculosis
[18] = source organism: Mycobacterium tuberculosis variant bovis BCG str. Pasteur 1173P2
[19] = source organism: Yellow fever virus
[20] = source organism: Bacillus cereus G9241

IC50 (HLA-A*02:01 [1]; source organism: Homo sapiens): 0.1 µM
Sequence: ALSRKVAEL

IC50 (HLA-A*02:01 [1]; source organism: Homo sapiens): ≥ 20 µM
Sequence: CISSCNPNP

Sequence: EYTDYMPSM
Kd (HLA-A*26:02 [2]): 0.026 µM

Sequence: IMDKNIILKA
IC50 (HLA-A*02:01 [1]; source organism: Influenza A virus (A/Puerto Rico/8/1934(H1N1))): 43 µM

Sequence: KSLYNTIATLY
Kd (HLA-A*01:01 [3]): 2.91 µM | Kd (HLA-A*02:03): ≥ 20 µM | Kd (HLA-A*02:06; [16]): 2.02 µM | Kd (HLA-A*11:01 [4]; [16]): 0.697 µM | Kd (HLA-A*26:02 [5]): 1.06 µM | Kd (HLA-A*30:01; [16]): ≥ 20 µM | Kd (HLA-B*15:01 [6]): ≥ 20 µM | Kd (HLA-B*15:17; [16]): 0.0126 µM | Kd (HLA-B*18:01): 0.346 µM | Kd (HLA-B*57:01 [7]): 0.652 µM

Sequence: RPRLHSISF
Kd (HLA-A*01:01 [8]): 1.31 µM | Kd (HLA-A*03:01; [17]): ≥ 20 µM | Kd (HLA-A*11:01 [9]; [17]): ≥ 20 µM | Kd (HLA-A*31:01; [17]): ≥ 20 µM | Kd (HLA-A*69:01; [17]): ≥ 20 µM | Kd (HLA-B*15:01 [10]; [17]): 0.079 µM | Kd (HLA-B*27:05; [17]): ≥ 20 µM | Kd (HLA-B*39:01): ≥ 20 µM | Kd (HLA-B*40:01): ≥ 20 µM | Kd (HLA-B*46:01): ≥ 20 µM | Kd (HLA-B*48:01): ≥ 20 µM | Kd (HLA-B*51:01): ≥ 20 µM | Kd (HLA-B*57:01 [11]): ≥ 20 µM | Kd (HLA-B*58:01; [17]): ≥ 20 µM | Kd (HLA-A*02:01 [12]): ≥ 20 µM | Kd (HLA-A*02:06; [18]): ≥ 20 µM | Kd (HLA-A*30:01; [18]): ≥ 20 µM | Kd (HLA-B*08:01): 0.0159 µM | Kd (HLA-B*15:17; [18]): ≥ 20 µM | Kd (HLA-B*15:42; [18]): ≥ 5 µM | Kd (HLA-B*45:06; [18]): ≥ 5 µM | Kd (HLA-B*83:01; [18]): 0.045 µM

Sequence: RTMEVFTMY
Kd (HLA-A*11:01 [4]; source organism: Yersinia pestis Nepal516): 0.0033 µM

IC50 (HLA-A*02:01 [1]; source organism: Homo sapiens): 0.793 µM
Sequence: RTYSGPMNKV

Kd (HLA-A*02:01 [13]): 15.6 µM | Kd (HLA-A*03:01; source organism: Homo sapiens): 0.775 µM | Kd (HLA-A*11:01 [9]; source organism: Homo sapiens): 1 µM | Kd (HLA-A*31:01; source organism: Homo sapiens): 0.143 µM | Kd (HLA-A*69:01; source organism: Homo sapiens): 0.13 µM | Kd (HLA-B*07:02): 0.232 µM | Kd (HLA-B*15:01 [10]; source organism: Homo sapiens): 0.103 µM | Kd (HLA-B*27:05; source organism: Homo sapiens): 2.17 µM | Kd (HLA-B*58:01; source organism: Homo sapiens): 0.304 µM | Kd (HLA-C*03:03): 0.113 µM | Kd (HLA-C*06:02; source organism: Homo sapiens): 0.049 µM | Kd (HLA-A*32:07; source organism: Homo sapiens): 0.0219 µM | Kd (HLA-B*15:42; source organism: Homo sapiens): ≥ 20 µM | Kd (HLA-B*45:06; source organism: Homo sapiens): ≥ 5 µM | Kd (HLA-B*83:01; source organism: Homo sapiens): 9.34 µM
Sequence: RVMAPRALL

Sequence: RWFVRNPFF
Kd (HLA-C*06:02; [19]): ≥ 20 µM | Kd (HLA-C*14:02 [14]): 0.278 µM | Kd (HLA-C*15:02; [19]): ≥ 20 µM | Kd (HLA-B*15:42; [19]): ≥ 5 µM | Kd (HLA-B*45:06; [19]): ≥ 5 µM | Kd (HLA-B*83:01; [19]): ≥ 5 µM

Sequence: YYKKTFSAL
Kd (HLA-C*06:02; [20]): 1.66 µM | Kd (HLA-C*15:02; [20]): ≥ 20 µM | Kd (HLA-A*24:03): ≤ 0.0001 µM | Kd (HLA-A*32:07; [20]): 0.029 µM | Kd (HLA-B*15:42; [20]): ≥ 5 µM | Kd (HLA-B*45:06; [20]): ≥ 5 µM | Kd (HLA-B*83:01; [20]): ≥ 5 µM | Kd (HLA-C*14:02 [15]): 0.0004 µM
